Measurements taken from US20150010586A1 (ACADEMISCH ZIEKENHUIS LEIDEN H O D N LUMC, published 2015).

Tests used:
Test in all cases: cellular competition assay vs FL-labelled reference peptide on B cells; affinity category (high/good IC50<5 uM, intermediate 5-15 uM, low >15-50 uM)
[1] = biological target: T1, HLA-A*0301 (human)
T1 construct: whole, on cells; Class I molecule on intact B cells (EKR); also called A3

[2] = biological target: T2, HLA-A*1101 (human)
T2 construct: whole, on cells; Class I molecule on intact B cells (BVR)

[3] = biological target: T3, HLA-A*0101 (human)
T3 construct: whole, on cells; also called A1

Row | IC50 [1] [µM] | IC50 [2] [µM] | IC50 [3] [µM] | Binder
1 | 5 to 15 |  |  | GGSRAHSSHLK (also called A3 (360-370)) [p53 360-370 GGSRAHSSHLK]
2 |  |  | 5 to 15 | CTTIHYNY (also called A1 (229-236)) [p53 229-236 CTTIHYNY]
3 |  |  | 5 to 15 | YLDDRNTFRH (also called A1 (205-214)) [p53 205-214 YLDDRNTFRH]

Continued, binder first:

Row | Binder | IC50 [1] [µM] | IC50 [2] [µM] | IC50 [3] [µM]
4 | RVRAMAIY (also called A3 (156-163)) [p53 156-163 RVRAMAIY] | 5 to 15 |  | 
5 | GQSTSRHKK (also called A11 (374-382)) [p53 374-382 GQSTSRHKK] |  | 5 to 15 | 
6 | GTAKSVTCTY (also called A1 (117-126); A3 (117-126)) [p53 117-126 GTAKSVTCTY] | 5 to 15 |  | 5 to 15
